“And” between values parts separate entries of the source, which are not always exact repeats. Equal entries are not always repeated.
B1: S378Pa3-2 PMevDC: phosphomevalonate decarboxylase isolated from a soil metagenomic library, SEQ ID NO: 18 (protein)
chain: MDYYYRVINNNEIPMKSPEFLEVSALAHPNIAFIKYWGNRDNDLRLPCNGSLSMNLSGLETKTSVQFDPSLSADQFKLSGKPIEWDALRRVSDFLEIVRDLAGISFFAKVESENSFPSGAGIASSASAFAALALAASKAAGLSLDEEALSRLARRGSGSACRSIPDGFVEWQAGSTDQDSFAWSIAPADHWDLVDLICVLNSEHKTVGSTGGHALASTSDLHLLRQERVEERIEICRKAILDRDFEHFASVVEEDSNLMHAVMRTSKPPLNYWLPETEVILWKVIHWRKKGIPVCSTVDAGPNVHVLTLSSEAEKVEALLKECPGVQSIFKARAGQGAQLI
modifications: Isolated from a metagenomic library constructed from soil samples
B2: Herpetosiphon PMevDC: Herpetosiphon aurantiacus phosphomevalonate decarboxylase, SEQ ID NO: 16, Genbank YP_001544383 (protein, listed as Herpetosiphon aurantiacus)
chain: MKQLSHAATAVACANIAFIKYWGQHDSQLTLPTNGSISMNLDGCLTETTVQCLPEAVDDSVWLALSGGEEVQAKGRQFERVIQQIERLRQLAGVTERVEVRSRNNFPSDAGIASSAAAFAALTRAAASAFRLELDEAELSRLTRLSGSGSACRSIPAGFVEWYNDGTHAGSYAAQIAPPEHWNLVDIVAVISTEAKHVASTSGHSVATTSPYFSVRLEGIEQRLADVRQGILERDIERLGRASEADAMSMHVIAMTAQPSTMYWLPGTLAVMQAVQRWRAQDNLQSYWTIDAGPNVHVICEAKDAPEVEARLCELDAVQWTIVNGAGPEARLVG
B3: H. aurantiacus IPK: Herpetosiphon aurantiacus isopentenyl phosphate kinase, SEQ ID NO: 19, Genbank YP_001545053 (protein, listed as Herpetosiphon aurantiacus)
chain: MNKPIFIKLGGSMLTDKTTAERLVDQTLKQVVTDLSAWRQAHPNQPILLGHGGGSFGHYWAERYQTAQGIINEQSWWGVARVADAMARLNRAVVGACLDADLPAIGIQPMASSLANAGEIQQIGSQPLATLLAAGTIPVIYGDVLLDVAQGCTIASTERIFSALVGPLQPTQIILLGEQAVYDADPRQHADAQPIPLINRTNYATIIARLGGSHGVDVTGGMRNKVEAMWQLVQQAPQLEIWICGPQQLQSALSGQLNGPGTIIKLD
B4: S. cerevisiae MVD: Mevalonate decarboxylase (MVD) from Saccharomyces cerevisiae used as a reference (protein, UniProt P32377 1-396, looked up)
Diphosphomevalonate …: MTVYTASVTAPVNIATLKYWGKRDTKLNLPTNSSISVTLSQDDLRTLTSAATAPEFERDTLWLNGEPHSIDNERTQNCLRDLRQLRKEMESKDASLPTLSQWKLHIVSENNFPTAAGLASSAAGFAALVSAIAKLYQLPQSTSEISRIARKGSGSACRSLFGGYVAWEMGKAEDGHDSMAVQIADSSDWPQMKACVLVVSDIKKDVSSTQGMQLTVATSELFKERIEHVVPKRFEVMRKAIVEKDFATFAKETMMDSNSFHATCLDSFPPIFYMNDTSKRIISWCHTINQFYGETIVAYTFDAGPNAVLYYLAENESKLFAFIYKLFGSVPGWDKKFTTEQLEAFNHQFESSNFTARELDLELQKDVARVILTQVGSGPQETNESLIDAKTGLPKE

How the values were obtained:
[1] = In vitro metabolite measurement, substrate conversion by crude E. coli lysate, substrate MVA; assay type: biochemical; conditions: crude extract from E. coli DH10b overexpressing S378Pa3-2
Experimental: (§1) In vitro assays were done with crude extracts from E. coli DH10b overexpressing pMCM2212. […] Negative control assays were done with extracts of E. coli harboring pTrcHis2b without insert. Substrates for in vitro conversions were mevalonate (MVA), mevalonate phosphate (MVP) also referred to as mevalonate 5-phosphate, mevalonate diphosphate (MVPP) also referred to as mevalonate 5-pyrophosphate, and isopentenyl phosphate (IP). Substrate conversion and product formation was analyzed by LC/MS.
(§2) Mass spectrometric analysis of metabolites was performed using a TSQ Quantim triple quadrupole instrument (Thermo Scientific). System control, data acquisition, and data analysis were done with XCalibur and LCQuan software (Thermo Scientific). About 10 μL samples were applied to a C18 Synergi MAX-RP HPLC column (150×2 mm, 4 uM, 80 A, Phenomenex) equipped with the manufacturer-recommended guard cartridge. The column was eluted with a gradient of 15 mM acetic acid+10 mM tributylamine in MilliQ-grade water (solvent A) and LCMS-grade methanol from Honeywell, Burdick & Jackson (solvent B). […] Concentrations of metabolites in cell extracts were determined based on calibration curves obtained by injection of commercial standards dissolved in 20% methanol/50 mM NH4Ac buffer (pH 7.0) to 0.5 ppm to 50 ppm final concentration. […]

[2] = In vitro metabolite measurement, substrate conversion by crude E. coli lysate, substrate MVP; assay type: biochemical; conditions: crude extract from E. coli DH10b overexpressing S378Pa3-2
Experimental: as §1, §2

[3] = Kinetic characterization of decarboxylases (coupled spectrophotometric assay), phosphomevalonate as substrate; assay type: biochemical; conditions: 34° C., 5 mM ATP, 10-250 μM (R)-phosphomevalonate, * using 1 mM substrate
Experimental: (§3) PMevDCs were incubated in the presence of mevalonate, phosphomevalonate, diphosphomevalonate, ATP, MgCl2 and the products of the reactions were confirmed by LC-MS. Mevalonate decarboxylase (MVD) from Saccharomyces cerevisiae was used as a reference. The catalytic activities of the decarboxylases were measured using a modified spectrophotometric assay that coupled ADP formation to pyruvate synthesis and reduction to lactate. The initial rate of disappearance of NADH was monitored at 340 nm on a SpectraMax M5 (Molecular Devices) to measure the reaction rate catalyzed by the PMevDCs. Samples for reaction rate studies contained 0.8 mM phosphoenolpyruvate, 0.05 mM DTT, 0.32 mM NADH, 10 mM MgCl2, 4 U lactate dehydrogenase, 4 U pyruvate kinase, 5 mM ATP and 10-250 μM (R)-phosphomevalonate or 10-250 μM (R)-diphosphomevalonate. All reactions were performed at 34° C. Reaction rate data was processed using Microsoft Excel and kinetic parameters were determined using Kaleidagraph.

screening host V. 05 = test: Activity-based screening for PMevDC in MVA-auxotrophic screening host; assay type: cell-based, E. coli; conditions: for growth / complementation of the lower MVA pathway in screening host in presence of MVA: 500 μM MVA
[4] = Kinetic characterization of decarboxylases (coupled spectrophotometric assay), diphosphomevalonate as substrate; assay type: biochemical; conditions: 34° C., 5 mM ATP, 10-250 μM (R)-diphosphomevalonate; for kcat ± SD, Diphosphomevalonate: * using 1 mM substrate; for Km: read-out: KM ± SD, Diphosphomevalonate
Experimental: as §3

[5] = In vitro metabolite measurement, substrate conversion by crude E. coli lysate, substrate IP; assay type: biochemical; conditions: crude extract from E. coli DH10b overexpressing S378Pa3-2
Experimental: as §1, §2

[6] = SDS-PAGE analysis of His-tagged and TEV protease cleaved PMevDCs and IPKs (solubility); assay type: physicochemical; conditions: FIG. 9
Experimental: Strains MCM2257, MCM2258, MCM2259, MCM2260, MCM2261, and MCM2262 were inoculated in 1 liter of LB medium containing the appropriate antibiotic and incubated at 34° C. for 7 hours from overnight cultures grown at 34° C. in LB broth containing the appropriate antibiotic (Table 7). Cultures at an OD 0.5-0.7 were induced with 200 μM IPTG. After induction, cells were harvested by centrifugation at 10000×g for 10 minutes. After removal of the supernatant, the cell pellets were resuspended in 40 mL lysis buffer containing 50 mM KPO4, pH 8.0, 0.3 M NaCl, 0.02 mM imidizole, 1 mg/mL lysozyme, and 1 mg/mL DNAase. The cells were lysed using a french pressure cell at 14,000 psi and the cell lysate was centrifuged at 50,000×g for 1 hour. The supernatant was collected, passed over a Ni-affinity resin before the resin was washed with 10 column volumes of lysis buffer containing 50 mM imidazole. The protein was eluted with 5 column volumes of lysis buffer containing 250 mM imidizole. Collected fractions were concentrated and passed over PD-10 columns for buffer exchange and the final collected protein samples were >95% pure according to SDS-PAGE analysis. The purified samples were incubated with TEV protease overnight at 4° C. to remove histidine tags from the purified proteins. The digested samples were subsequently passed over Ni-affinity resin and the flow-through was collected and analyzed by SDS-PAGE.
H. aurantiacus PMevDC (lanes 2 and 3), H. aurantiacus IPK (lanes 4 and 5), and S378Pa3-2 PMevDC (lanes 6 and 7) were all soluble whether they were expressed with an attached His-tag or without a His-Tag (FIG. 9).

[7] = In vitro metabolite measurement, substrate conversion by crude E. coli lysate, substrate MVPP; assay type: biochemical; conditions: crude extract from E. coli DH10b overexpressing S378Pa3-2
Experimental: as §1, §2

[8] = listed as Herpetosiphon aurantiacus ATCC 23779 PMevDC

Molecule	use of MVA as substrate [1]	activity of crude extract on MVP [2]	kcat ± SD, Phosphomevalonate [3]	growth / complementation of the lower MVA pathway in screening host in presence of MVA (screening host V. 05)	growth / complementation of the lower MVA pathway in screening host in presence of MVA (screening host V. 05; listed as cds#2)	growth in presence of Fosmidomycin (screening host V. 05; Fosmidomycin 32 μg/ml, 500 μM MVA supplied)	kcat ± SD, Diphosphomevalonate [4]	Km [4]	use of IP as substrate [5]	solubility of expressed enzyme with or without His-tag [6]	activity of crude extract on MVPP [7]	kcat ± SD, Phosphomevalonate [3, 8]	kcat ± SD, Diphosphomevalonate [4, 8]
B1	not used as substrates	activity on MVP	2.9 s⁻¹ and 2.9 ± 0.5 s⁻¹	sustained growth	able to complement the lower MVA pathway	grew unrestricted	1.09 s⁻¹ and 1.09 ± 0.09 s⁻¹	22 µM	not used as substrates	soluble	some activity on MVPP	–	–
B2	–	–	3.3 ± 0.2 s⁻¹	–	–	–	<0.02* s^−1	–	–	soluble	–	3.3 s⁻¹	less than 0.02 s^−1
B3	–	–	–	–	–	–	–	–	–	soluble	–	–	–
B4	–	–	–	–	–	–	11.6 s⁻¹ and 11.6 ± 0.6 s⁻¹	44 µM	–	–	–	–	–

Reference: patent US20160002672A1, “PRODUCTION OF ISOPRENE, ISOPRENOID, AND ISOPRENOID PRECURSORS USING AN ALTERNATIVE LOWER MEVALONATE PATHWAY” (DANISCO US INC., priority 2012, published 2016)
